Publication PMC7271948, “A baculoviral system for the production of human β-glucocerebrosidase enables atomic resolution analysis” (Acta Crystallographica. Section D, Structural Biology, 2020)

Substrate: Cc1cc(=O)oc2cc(O[C@@H]3O[C@H](CO)[C@@H](O)[C@H](O)[C@H]3O)ccc12
Assay: purified protein

B1: β-glucocerebrosidase (GBA) (Homo sapiens) (protein)
chain: ARPCIPKSFGYSSVVCVCNATYCDSFDPPTFPALGTFSRYESTRSGRRMELSMGPIQANHTGTGLLLTLQPEQKFQKVKGFGGAMTDAAALNILALSPPAQNLLLKSYFSEEGIGYNIIRVPMASCDFSIRTYTYADTPDDFQLHNFSLPEEDTKLKIPLIHRALQLAQRPVSLLASPWTSPTWLKTNGAVNGKGSLKGQPGDIYHQTWARYFVKFLDAYAEHKLQFWAVTAENEPSAGLLSGYPFQCLGFTPEHQRDFIARDLGPTLANSTHHNVRLLMLDDQRLLLPHWAKVVLTDPEAAKYVHGIAVHWYLDFLAPAKATLGETHRLFPNTMLFASEACVGSKFWEQSVRLGSWDRGMQYSHSIITNLLYHVVGWTDWNLALNPEGGPNWVRNFVDSPIIVDITKDTFYKQPMFYHLGHFSKFIPEGSQRVGLVASQKNDLDAVALMHPDGSAVVVVLNRSSKDVPLTIKDPAVGFLETISPGYSIHTYLWRRQ
Km: 1288 ± 51 µM | Vmax: 11.7 µM/min | kcat: 19.6 s⁻¹
